Results as given in patent US8975259B2, “Compositions and methods for inhibiting G protein signaling” (University of Rochester, priority 2007, dated 2015).

What was measured:
Assay in all cases: Phage ELISA: binding of peptide-displaying phage to wild-type or alanine-substituted b-βγ
Design in all cases: species or system rat
Gβ1γ2 (Gβ1 mutants) [1] = target: T1, Gβ1γ2 (Gβ1 mutants) (UniProt P54311+P63212, M101A); conditions: Gβ1 Met101Ala; mean ± SD
T1 construct: made in house; host or cells: Sf9 insect cells (baculovirus), partially purified via (His)6-Gαi1 on Ni-NTA
Excerpt: (§1) Wild-type Gβ1 and Gp1 mutants were made in the baculovirus vector PDW464 which encodes a biotinylation site at a lysine upstream of the amino terminus of Gβ1 (Goubaeva, et al. (2003) supra). Mutants were generated by overlap extension PCR using standard protocols. The wild-type and mutant Gβ1 constructs consisted of a 20 amino acid biotin acceptor peptide (BAP) sequence fused in-frame with the amino-terminus of rat Gβ1 subunit. When coexpressed with biotin holoenzyme synthetase (BirA) in Sf9 cells, the Gβ1 subunit becomes covalently biotinylated in vivo at the specific lysine acceptor residue in the BAP. Using this approach, 1-2 mg protein of purified protein can be obtained per liter of Sf9 insect cells. As 45 ng of protein is used in the phage ELISA assay, a single purification is sufficient for 10,000 to 30,000 binding assays.
(§2) Phage ELISA assays used to assess peptide binding to wild-type and mutant b-βγ were performed according to standard methods (Smrcka and Scott (2002) Methods Enzymol. 344:557-76). Briefly, 1 μg streptavidin was immobilized in the well of a […] overnight at 4° C. The wells were blocked with 100 μL of 2% bovine serum albumin (BSA) in Tris-buffered saline (TBS) for 1 hour at 4° C. followed by three washes of IX TBS/0.5% TWEEN®. Forty μL of 25 nM bGβ1γ2 in TBS/0.5% TWEEN® was added to each well and incubated at 4° C. for 1.5 hour. The wells were washed, followed by the addition of IxIO^6 to IxIO^10 phage particles and incubated at 4° C. for 3 hours. The wells were then washed six times with TBS/0.5% TWEEN® followed by addition of 40 μL of 1:5000 dilution of anti-M13 antibody (Pharmacia, Uppsala, Sweden) and incubated at room temperature for 1 hour. The wells were washed, followed by the addition of 40 μL of (2,2′-Azino-bis (3-ethylbenzthiazoline)-6-sulfonic acid (ABTS) and the colorimetric reaction was monitored at 405 nm. Nonspecific binding was subtracted for each reading.
(§3) The nine peptides were selected to represent the different consensus groups of peptides previously identified (See Scott et al. (2001) supra; Table 15) and to compare binding characteristics within and between consensus groups. […] As disclosed herein, the binding signal obtained in the ELISA assay was correlated to a loss in affinity by comparing the results to behavior of the peptide in a solution based assay. […] For the purposes of present disclosure, any substitution that decreased the binding to less than 20% of the wild-type binding was considered to be a critical binding contact for that peptide.

Gβ1γ2 (Gβ1 mutants) [2] = target: T2, Gβ1γ2 (Gβ1 mutants) (UniProt P54311+P63212, Y59A); conditions: Gβ1 Tyr59Ala; mean ± SD
T2 construct: made in house; host or cells: Sf9 insect cells (baculovirus), partially purified via (His)6-Gαi1 on Ni-NTA
Excerpt: as §1, §2, §3

Gβ1γ2 (Gβ1 mutants) [3] = target: T3, Gβ1γ2 (Gβ1 mutants) (UniProt P54311+P63212, W99A); conditions: Gβ1 Trp99Ala; mean ± SD
T3 construct: made in house; host or cells: Sf9 insect cells (baculovirus), partially purified via (His)6-Gαi1 on Ni-NTA
Excerpt: as §1, §2, §3

Gβ1γ2 (Gβ1 mutants) [4] = target: T4, Gβ1γ2 (Gβ1 mutants) (UniProt P54311+P63212, H311A); conditions: Gβ1 His311Ala; mean ± SD
T4 construct: made in house; host or cells: Sf9 insect cells (baculovirus), partially purified via (His)6-Gαi1 on Ni-NTA
Excerpt: as §1, §2, §3

Gβ1γ2 (Gβ1 mutants) [5] = target: T5, Gβ1γ2 (Gβ1 mutants) (UniProt P54311+P63212, R314A); conditions: Gβ1 Arg314Ala; mean ± SD
T5 construct: made in house; host or cells: Sf9 insect cells (baculovirus), partially purified via (His)6-Gαi1 on Ni-NTA
Excerpt: as §1, §2, §3

Gβ1γ2 (Gβ1 mutants) [6] = target: T6, Gβ1γ2 (Gβ1 mutants) (UniProt P54311+P63212, Y145A); conditions: Gβ1 Tyr145Ala; mean ± SD
T6 construct: made in house; host or cells: Sf9 insect cells (baculovirus), partially purified via (His)6-Gαi1 on Ni-NTA
Excerpt: as §1, §2, §3

Gβ1γ2 (Gβ1 mutants) [7] = target: T7, Gβ1γ2 (Gβ1 mutants) (UniProt P54311+P63212, K57A); conditions: Gβ1 Lys57Ala; mean ± SD
T7 construct: made in house; host or cells: Sf9 insect cells (baculovirus), partially purified via (His)6-Gαi1 on Ni-NTA
Excerpt: as §1, §2, §3

Gβ1γ2 (Gβ1 mutants) [8] = target: T8, Gβ1γ2 (Gβ1 mutants) (UniProt P54311+P63212, L117A); conditions: Gβ1 Leu117Ala; mean ± SD
T8 construct: made in house; host or cells: Sf9 insect cells (baculovirus), partially purified via (His)6-Gαi1 on Ni-NTA
Excerpt: as §1, §2, §3

Gβ1γ2 (Gβ1 mutants) [9] = target: T9, Gβ1γ2 (Gβ1 mutants) (UniProt P54311+P63212, N230A); conditions: Gβ1 Asn230Ala; mean ± SD
T9 construct: made in house; host or cells: Sf9 insect cells (baculovirus), partially purified via (His)6-Gαi1 on Ni-NTA
Excerpt: as §1, §2, §3

Gβ1γ2 (Gβ1 mutants) [10] = target: T10, Gβ1γ2 (Gβ1 mutants) (UniProt P54311+P63212, M188A); conditions: Gβ1 Met188Ala; mean ± SD
T10 construct: made in house; host or cells: Sf9 insect cells (baculovirus), partially purified via (His)6-Gαi1 on Ni-NTA
Excerpt: as §1, §2, §3

Gβ1γ2 (Gβ1 mutants) [11] = target: T11, Gβ1γ2 (Gβ1 mutants) (UniProt P54311+P63212, D186A); conditions: Gβ1 Asp186Ala; mean ± SD
T11 construct: made in house; host or cells: Sf9 insect cells (baculovirus), partially purified via (His)6-Gαi1 on Ni-NTA
Excerpt: as §1, §2, §3

Gβ1γ2 (Gβ1 mutants) [12] = target: T12, Gβ1γ2 (Gβ1 mutants) (UniProt P54311+P63212, W332A); conditions: Gβ1 Trp332Ala; mean ± SD
T12 construct: made in house; host or cells: Sf9 insect cells (baculovirus), partially purified via (His)6-Gαi1 on Ni-NTA
Excerpt: as §1, §2, §3

Gβ1γ2 (Gβ1 mutants) [13] = target: T13, Gβ1γ2 (Gβ1 mutants) (UniProt P54311+P63212, D246S); conditions: Gβ1 Asp246Ser; mean ± SD
T13 construct: made in house; host or cells: Sf9 insect cells (baculovirus), partially purified via (His)6-Gαi1 on Ni-NTA
Excerpt: as §1, §2, §3

| Sequence | % of Wild-Type Signal (Gβ1γ2 (Gβ1 mutants) [1]) | % of Wild-Type Signal (Gβ1γ2 (Gβ1 mutants) [2]) | % of Wild-Type Signal (Gβ1γ2 (Gβ1 mutants) [3]) | % of Wild-Type Signal (Gβ1γ2 (Gβ1 mutants) [4]) | % of Wild-Type Signal (Gβ1γ2 (Gβ1 mutants) [5]) | % of Wild-Type Signal (Gβ1γ2 (Gβ1 mutants) [6]) | % of Wild-Type Signal (Gβ1γ2 (Gβ1 mutants) [7]) | % of Wild-Type Signal (Gβ1γ2 (Gβ1 mutants) [8]) | % of Wild-Type Signal (Gβ1γ2 (Gβ1 mutants) [9]) | % of Wild-Type Signal (Gβ1γ2 (Gβ1 mutants) [10]) | % of Wild-Type Signal (Gβ1γ2 (Gβ1 mutants) [11]) | % of Wild-Type Signal (Gβ1γ2 (Gβ1 mutants) [12]) | % of Wild-Type Signal (Gβ1γ2 (Gβ1 mutants) [13]) |
| --- | --- | --- | --- | --- | --- | --- | --- | --- | --- | --- | --- | --- | --- |
| SIGKALFILGYPDYD [Compound 3.14] | 26.8 ± 12.5% | 24.7 ± 15.2% | 66.0 ± 7.7% | 93.4 ± 21.5% | 50.2 ± 5.0% | 0.8 ± 0.9% | 18.6 ± 4.6% | 2.1 ± 2.4% | 22.4 ± 4.2% | 2.5 ± 3.7% | 14.4 ± 13.4% | 7.1 ± 3.7% | 66.5 ± 7.5% |
| LCSKAYLLLGQTC [Compound 2F] | 6.0 ± 5.1% | −2.0 ± 9.5% | 32.6 ± 26.3% | 23.6 ± 46.0% | 2.4 ± 3.9% | 0.1 ± 6.5% | −4.5 ± 6.2% | 2.1 ± 5.5% | 27.6 ± 19.1% | 8.5 ± 5.2% | 2.4 ± 3.5% | −1.5 ± 3.6% | 0.6 ± 2.5% |
| SCEKRLGVRSCT (phage-displayed) [Compound C5] | 47.8 ± 18.9% | 73.8 ± 16.6% | 39.0 ± 3.8% | 58.7 ± 14.4% | 76.5 ± 6.7% | 16.7 ± 4.8% | 5.6 ± 5.3% | 28.5 ± 5.2% | 33.5 ± 7.2% | 97.2 ± 14.2% | 45.7 ± 5.2% | 3.2 ± 3.7% | 56.3 ± 4.1% |
| SCEKRYGIEFCT [Compound C4] | 61.2 ± 30.9% | 7.6 ± 9.6% | 67.0 ± 15.2% | 36.5 ± 8.3% | 1.4 ± 1.0% | 4.4 ± 3.8% | −0.2 ± 1.9% | 18.4 ± 7.1% | 11.5 ± 6.0% | 127.5 ± 22.4% | 51.3 ± 15.0% | 1.7 ± 3.0% | 35.8 ± 7.4% |
| SCKRTKAQILLAPCT [Compound C1] | 70.5 ± 35.3% | 0.3 ± 0.7% | 1.2 ± 2.7% | 3.0 ± 4.0% | 2.8 ± 1.6% | 88.0 ± 29.9% | 0.1 ± 1.6% | 5.2 ± 3.1% | 19.8 ± 12.3% | 4.0 ± 3.4% | 1.4 ± 1.7% | −0.3 ± 2.5% | 2.3 ± 3.0% |
| WCPPKLEQWYDGCA [Compound C2] | 157.1 ± 51.5% | −1.7 ± 4.8% | −1.0 ± 5.1% | 11.7 ± 8.0% | 1.3 ± 3.1% | 4.5 ± 8.1% | −1.2 ± 4.5% | 1.5 ± 5.5% | 0.0 ± 3.3% | −0.7 ± 2.5% | 267.2 ± 40.6% | 4.7 ± 6.2% | 5.9 ± 5.7% |
| SCGHGLKVQSTIGACA [Compound 3C] | −4.2 ± 5.5% | 8.5 ± 6.4% | −0.5 ± 5.9% | 30.5 ± 18.9% | 8.3 ± 3.6% | 2.7 ± 10.5% | 3.6 ± 7.5% | 10 ± 13.3% | 4.1 ± 4.4% | −5.7 ± 5.6% | 35.0 ± 17.2% | −0.3 ± 1.7% | 2.0 ± 2.7% |
| SCARFFGTPGCT [Compound C8] | 23.6 ± 8.5% | 4.0 ± 6.2% | −0.8 ± 2.7% | 51.6 ± 13.2% | 20.8 ± 11.1% | 17.5 ± 7.8% | 14.2 ± 9.8% | 24.7 ± 12.5% | 74.8 ± 14.8% | 122.6 ± 26.2% | 124.9 ± 29.1% | 0.7 ± 2.4% | 60.8 ± 14.4% |
